Where a chain is given by its changes, count along the chain named.
B1: ExplResIEE.P026.237 (ligand)
chain: APASSSTKKTQLQLEHLLLDLQMILNGINNYKNPKLTRMLTAKFAMPKKATELKHLQCLEEELKPLEEVLNGAQSKNFHLQPRDLIENINDIVLELKGSETTFMCEYADETATIVEFLNRWIEFAQSIIETLD
notes: as m5; not shown: C-terminal His tag and Flag tag of the phagemid
B2: ExplResIEE.P041.554 (ligand)
chain: B1 chain with L12Q, L19Q, Q81H, E87S, D91E, D133E
notes: as for B1
B3: ExplResIEE.P026.175 (ligand)
chain: B1 chain with Q11E, D20Q, M23E, Q81D, D84E, D91V, E123T, D133N
notes: as for B1
B4: ExplResIEE.P031.226 (ligand)
chain: B1 chain with L19D, M23N, Q81D, E87S, D91V, E123T, E130S, D133E
notes: as for B1
B5: ExplResIEE.P030.045 (ligand)
chain: B1 chain with L19D, Q81E, D84E, E87Q, D91V, R120H, E123T, D133E
notes: as for B1
B6: ExplResIEE.P026.355 (ligand)
chain: B1 chain with Q11E, L12E, M23Q, Q81D, E123T, D133Q
notes: as for B1
B7: ExplResIEE.P026.191 (ligand)
chain: B1 chain with L12E, L19D, Q81D, E87S, D91V, R120E, D133E
notes: as for B1
B8: ExplResIEE.P030.006 (ligand)
chain: B1 chain with Q81D, D84Q, E87D, D91N, E123Q
notes: as for B1
B9: ExplResIEE.P026.099 (ligand)
chain: B1 chain with L12E, D20E, M23N, Q81N, D84E, D91V, R120E, D133N
notes: soluble pH-dependent IL2v variant in bacterial supernatant, first library; not shown: C-terminal His tag and Flag tag of the phagemid
B10: ExplResIEE.P042.107 (ligand)
chain: B1 chain with K8E, D20E, M23N, Q81H, D84Q, D91V, R120H, E123T
notes: as for B1
B11: ExplResIEE.P041.449 (ligand)
chain: B1 chain with R120E, E123T
notes: as for B1
B12: ExplResIEE.P041.242 (ligand)
chain: B1 chain with L19D, Q81E, E87S, D91V, E123T
notes: as for B1
B13: ExplResIEE.P027.359 (ligand)
chain: B1 chain with Q11E, L19D, Q81D, D84E, E87S, D91V, E123T
notes: as for B1
B14: ExplResIEE.P041.017 (ligand)
chain: B1 chain with Q11E, L12E, M23Q, E87D, D91N, E95Q, R120H, D133E
notes: as for B1
B15: ExplResOnc.P177.0035 (IL2v (consensus all)) (ligand, not shown: large carriers)
chain: B1 chain with Q11E, E15Q, H16E, L19D, Q81D, D84E, D91V, R120H, E123T, D133E
notes: as m20
B16: ExplResOnc.P175.0368 (ligand, not shown: large carriers)
chain: B1 chain with Q11T, L12E, E15Q, H16E, L19D, Q81D, D84E, D91V, R120E, E123T
notes: as m20
B17: ExplResOnc.P173.0079 (ligand, not shown: large carriers)
chain: APASSSTKKTQLQLEELLDDLEQILNGINNYKNPKLTRMLTAKFAMPKKATELKHLQCLEEELKPLEEVLNGAQSKNFHLDPRELIDNINVIVLELKGSETTFMCEYADETATIVEFLNHWITFAQSIIETLE
notes: soluble pH-dependent IL2v variant in bacterial supernatant, second library
B18: ExplResOnc.P175.0125 (ligand, not shown: large carriers)
chain: B17 chain with Q11E, L12T, Q23M, D87E, E133D
notes: as m20
B19: ExplResOnc.P173.0239 (ligand, not shown: large carriers)
chain: B17 chain with Q11E, E15Q, D19L, Q23E, D81H, D87E, E133D
notes: as m20
B20: ExplResOnc.P173.0255 (ligand, not shown: large carriers)
chain: B17 chain with Q11E, L12D, Q13H, E15Q, D19L, Q23E, D81N, D87E
notes: as m20
B21: ExplResOnc.P173.0182 (ligand, not shown: large carriers)
chain: B17 chain with Q11E, D19L, E22Q, Q23E, D81N, D87E, Q126E
notes: as m20
B22: ExplResOnc.P173.0371 (ligand, not shown: large carriers)
chain: B17 chain with E22Q, D81N, E133D
notes: as m20
B23: ExplResOnc.P174.0173 (ligand, not shown: large carriers)
chain: B17 chain with Q11E, L12T, E15Q, E22H, Q23M, D87E
notes: as m20
B24: ExplResOnc.P174.0040 (ligand, not shown: large carriers)
chain: B17 chain with Q11E, L12T, E16Q, E22Q, Q23E, D87E
notes: as m20
B25: ExplResOnc.P173.0087 (ligand, not shown: large carriers)
chain: B17 chain with Q11E, L12E, E16Q, Q23N, D81E, D87E
notes: as m20
B26: ExplResOnc.P173.0259 (ligand, not shown: large carriers)
chain: B17 chain with Q11E, E15Q, E22Q, Q23M, D81E, E84D, D87E
notes: as m20
B27: ExplResOnc.P177.0156 (ligand, not shown: large carriers)
chain: B17 chain with Q11E, L12S, E22Q, D87E
notes: as m20
B28: ExplResOnc.P173.0127 (ligand, not shown: large carriers)
chain: B17 chain with Q11E, E22Q, Q23E, E84D, D87E, Q126E, E130S, E133D
notes: as m20
B29: ExplResOnc.P178.0145 (ligand, not shown: large carriers)
chain: B17 chain with Q11E, L12E, E16N, D19L, E22Q, Q23N, D81E, D87S
notes: as m20
B30: ExplResOnc.P172.0344 (ligand, not shown: large carriers)
chain: B17 chain with S6Y, L12E, Q13R, E16Q, D19L, D81N, D87E, E133D
notes: as m20
B31: ExplResOnc.P177.0036 (ligand, not shown: large carriers)
chain: B17 chain with Q11E, E15Q, E22Q, Q23M, D81Q, D87E
notes: as m20
B32: ExplResOnc.P174.0327 (ligand, not shown: large carriers)
chain: B17 chain with Q11E, L12E, Q13H, E15Q, E16N, D81E, E95D, E130S
notes: as m20
B33: ExplResOnc.P174.0326 (ligand, not shown: large carriers)
chain: B17 chain with E22D, D87E
notes: as m20
B34: ExplResOnc.P173.0156 (ligand, not shown: large carriers)
chain: B17 chain with Q11E, L12S, E15Q, E16N, E22Q, Q23E, D81E
notes: as m20
B35: ExplResOnc.P173.0364 (ligand, not shown: large carriers)
chain: B17 chain with E16D, D19L, E22Q, Q23N, D87S
notes: as m20

Each binder was assayed against T1, IL2R(bg)-Fc construct (human IL2R beta extracellular domain fused to Fc(knob) with avi tag, human IL2R gamma … (human, biotin on the C-terminal avi tag (co-expressed BirA))) (assay: ELISA: biotinylated IL2R(bg)-Fc coated on neutravidin plates, clone in bacterial supernatant bound at pH 6, washing and 30 min incubation at pH 6 or pH 7.4, detection with anti-Flag/HRP; absorption at pH 6 set to 1).
T1 construct: Knob-into-hole Fc heterodimer; also called IL2Rβγ; human heterodimeric IL-2 receptor beta/gamma
T1 sequence (chain, as listed by the source limits assumed, chain 1 of 2): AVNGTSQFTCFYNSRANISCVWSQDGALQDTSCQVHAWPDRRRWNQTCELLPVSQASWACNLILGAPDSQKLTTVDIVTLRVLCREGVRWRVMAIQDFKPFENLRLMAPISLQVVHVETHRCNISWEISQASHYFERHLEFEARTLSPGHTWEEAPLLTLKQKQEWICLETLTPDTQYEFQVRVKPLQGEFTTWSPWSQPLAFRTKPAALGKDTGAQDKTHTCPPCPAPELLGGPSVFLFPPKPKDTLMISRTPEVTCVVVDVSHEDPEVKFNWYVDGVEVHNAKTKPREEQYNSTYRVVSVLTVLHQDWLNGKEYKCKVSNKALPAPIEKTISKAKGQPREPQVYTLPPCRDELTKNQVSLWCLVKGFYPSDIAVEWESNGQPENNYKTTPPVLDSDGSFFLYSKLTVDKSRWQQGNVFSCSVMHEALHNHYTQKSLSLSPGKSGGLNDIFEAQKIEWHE
T1 sequence (chain, as listed by the source limits assumed, chain 2 of 2): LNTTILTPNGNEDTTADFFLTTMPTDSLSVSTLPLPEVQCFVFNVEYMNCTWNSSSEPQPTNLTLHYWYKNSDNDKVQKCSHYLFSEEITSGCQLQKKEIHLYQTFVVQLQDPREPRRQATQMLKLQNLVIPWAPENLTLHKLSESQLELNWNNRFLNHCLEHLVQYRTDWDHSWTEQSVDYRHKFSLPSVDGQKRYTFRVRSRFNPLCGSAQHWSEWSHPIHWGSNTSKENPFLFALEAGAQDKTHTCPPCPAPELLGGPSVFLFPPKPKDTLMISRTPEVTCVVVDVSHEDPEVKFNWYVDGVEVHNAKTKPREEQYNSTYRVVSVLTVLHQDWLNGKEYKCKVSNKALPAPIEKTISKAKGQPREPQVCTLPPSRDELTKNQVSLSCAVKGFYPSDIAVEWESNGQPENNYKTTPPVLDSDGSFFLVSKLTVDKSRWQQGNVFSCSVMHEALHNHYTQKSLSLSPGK
Experimental: (§1) FIG. 3. Binding analysis for the first set of selected pH-dependent IL2v variants to IL2Rfβγ at pH 6 and pH 7.4 by ELISA. Bacterial supernatants containing clonal pH-dependent IL2v variants were incubated with previously coated IL2Rfβγ. Prior to the detection by an anti-Flag/HRP secondary antibody, extensive washing for 30 minutes was performed at pH 6 or pH 7.4. The absorption at pH 6 was normalized to a value of 1 and the ratio of absorption levels was compared.
25 μl of 50 nM biotinylated antigen per well were coated at pH 6 on 384-well neutravidin plates and blocked with 2% BSA (50 mM BisTris 140 mM NaCl, 2% BSA, pH 6). Bacterial supernatants containing soluble variants of IL2v were re-buffered to pH 6, added to the plates and incubated for 1 h. Subsequently, several washing steps were performed at either pH 6 or pH 7.4 followed by an incubation step in washing buffer for 30 min at the respective pH. Binding of pH-dependent IL2v variants to the IL2R(bg)-Fc construct was detected via Flag tag by using an anti-Flag/HRP secondary antibody. Comparison of the signal between the two conditions (pH 6 vs pH 7.4) allowed identifying constructs that bind in a pH-dependent manner. The phagemid expressing the parental IL2v construct was used as an internal pH-independent control. […] (FIG. 3), were selected (SEQ ID NOs 5-19) and converted into one-armed (OA) targeted conjugates.

Row | Binder | binding result
1 | B1 | binds
2 | B2 | binds
3 | B3 | binds
4 | B4 | binds
5 | B5 | binds
6 | B6 | binds
7 | B7 | binds
8 | B8 | binds
9 | B9 | binds
10 | B10 | binds
11 | B11 | binds
12 | B12 | binds
13 | B13 | binds
14 | B14 | binds

What follows are binders tested against T1, IL2R(bg)-Fc construct (human IL2R beta …) (assay: ELISA: biotinylated IL2R(bg)-Fc coated on neutravidin plates, clone in bacterial supernatant bound at pH 6, washing and 30 min incubation at pH 6.0, 6.5, 7.0 or 7.4, detection with anti-Flag/HRP; absorption at pH 6 set to 1).
Experimental: as §1, with “FIG. 4. Binding analysis” for “FIG. 3. Binding analysis”, “for the second set of” for “for the first set of”, “at pH 6, pH 6.5, pH 7 and pH” for “at pH 6 and pH”
25 μl of 50 nM biotinylated antigen per well were coated at pH 6 on 384-well neutravidin plates and blocked with 2% BSA (50 mM BisTris 140 mM NaCL, 2% BSA, pH 6). Bacterial supernatants containing soluble variants of IL2v were re-buffered to pH 6, added to the plates and incubated for 1 h. Subsequently, several washing steps were performed at either pH 6 or pH 7.4 followed by an incubation step in washing buffer for 30 min at the respective pH. Binding of pH-dependent IL2v variants to the IL2R(bg)-Fc construct was detected via Flag tag by using an anti-Flag/HRP secondary antibody. Comparison of the signal between the two conditions (pH6 vs pH7.4) allowed identifying clones that bind in a pH-dependent manner. The phagemid expressing the parental IL2v construct was used as an internal control for a pH-independent signal. Clones with a binding ratio at pH 6 versus pH 7 that greater than 10 were short-listed and re-tested in order to confirm their pH-dependency.
In order to further characterize the selected pH-dependent IL2v variants, they were analyzed for their binding to IL2R(bg)-Fc under four different pH conditions including pH 6, pH 6.5, pH 7, and pH 7.4. Binding at pH 6 was normalized to 1 in order to better compare binding among all clones. […] In general, binding intensity at pH 7 and pH 7.4 was reduced between 10-100-fold

Row | Binder | binding result
15 | B15 | binds
16 | B16 | binds
17 | B17 | binds
18 | B18 | binds
19 | B19 | binds
20 | B20 | binds
21 | B21 | binds
22 | B22 | binds
23 | B23 | binds
24 | B24 | binds
25 | B25 | binds
26 | B26 | binds
27 | B27 | binds
28 | B28 | binds
29 | B29 | binds
30 | B30 | binds
31 | B31 | binds
32 | B32 | binds
33 | B33 | binds
34 | B34 | binds
35 | B35 | binds
